Measurements: publication PMC5760450, “FzlA, an essential regulator of FtsZ filament curvature, controls constriction rate during Caulobacter division” (Molecular Microbiology, 2017)
Positions count from the first letter of the chain named. Names may count otherwise.

T1: FtsZ (purified, C. crescentus) (Caulobacter crescentus, UniProt B8H080 1-508)
T1 construct: FtsZ, Caulobacter crescentus; In the assays it was polymerised with GTP and MgCl2; source: E. coli Rosetta (DE3) pLysS, purified as previously described (Sundararajan et al., 2015)
T1 sequence (looked up): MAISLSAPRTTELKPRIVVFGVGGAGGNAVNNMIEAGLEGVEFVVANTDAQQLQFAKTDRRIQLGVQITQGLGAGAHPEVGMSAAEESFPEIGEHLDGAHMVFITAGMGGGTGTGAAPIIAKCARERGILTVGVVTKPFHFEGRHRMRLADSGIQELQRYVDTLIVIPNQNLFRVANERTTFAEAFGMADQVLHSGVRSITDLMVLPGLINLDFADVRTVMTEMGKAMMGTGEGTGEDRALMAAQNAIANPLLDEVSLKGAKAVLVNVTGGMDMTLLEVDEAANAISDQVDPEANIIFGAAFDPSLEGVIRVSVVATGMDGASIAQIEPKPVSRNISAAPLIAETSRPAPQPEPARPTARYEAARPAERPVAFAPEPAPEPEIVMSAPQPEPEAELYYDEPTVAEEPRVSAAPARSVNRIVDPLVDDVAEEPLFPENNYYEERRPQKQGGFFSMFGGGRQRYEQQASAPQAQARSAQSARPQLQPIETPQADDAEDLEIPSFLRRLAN

B1: untagged WT FzlA (natural protein, Caulobacter crescentus)
chain: MSVERTLHHFPLDPASRQVRLALGEKRLPFVEMQVRYWEMPPEFTSLNPSGMPPVLVETKHQRNLVICETRAILEHIEETETEPPLLGRDPAERAEARRLLQWFDRKFDNEVNGFLLHEKMEKRLLRMGAPDLAALRQGREALRMHLGYIESLLQTRDWLAGRRMSLADFAAAAHLSVIDYFGDVPWKDFQAAKTWYMKLKSRPCFRPILADRWPGLAPAAHYDDLDF
notes: FzlA, Caulobacter crescentus; source: E. coli Rosetta (DE3) pLysS, purified (HisTrap, His6-SUMO cleaved with His6-ULP, second HisTrap flow through)
B2: FzlA^UN1 (P131A) (natural protein, Caulobacter crescentus)
chain: B1 chain with P131A
notes: FzlA, Caulobacter crescentus, with P131A; also called unknown nonessential activity; source: E. coli Rosetta (DE3) pLysS, purified (HisTrap, His6-SUMO cleaved)
B3: FzlA^UE2 (D227K) (natural protein, Caulobacter crescentus)
chain: B1 chain with D227K
notes: FzlA, Caulobacter crescentus, with D227K; also called unknown essential activity; source: E. coli Rosetta (DE3) pLysS, purified (HisTrap, His6-SUMO cleaved)
B4: FzlA^NH3 (R144D) (natural protein, Caulobacter crescentus)
chain: B1 chain with R144D
notes: FzlA, Caulobacter crescentus, with R144D; also called no helices; source: E. coli Rosetta (DE3) pLysS, purified (HisTrap, His6-SUMO cleaved)
B5: FzlA^NB1 (W38A R124D) (natural protein, Caulobacter crescentus)
chain: B1 chain with W38A, R124D
notes: FzlA, Caulobacter crescentus, with W38A R124D; Self-aggregates under the standard conditions (pH 6.5, 2:1 FzlA:FtsZ); source: E. coli Rosetta (DE3) pLysS, purified (HisTrap, His6-SUMO cleaved)
B6: FzlA^UE1 (Y223A D227K F228A) (natural protein, Caulobacter crescentus)
chain: B1 chain with Y223A, D227K, F228A
notes: FzlA, Caulobacter crescentus, with Y223A D227K F228A; also called unknown essential activity; source: E. coli Rosetta (DE3) pLysS, purified (HisTrap, His6-SUMO cleaved)
B7: FzlA^NH1 (P131A L136A R137E) (natural protein, Caulobacter crescentus)
chain: B1 chain with P131A, L136A, R137E
notes: FzlA, Caulobacter crescentus, with P131A L136A R137E; also called no helices; source: E. coli Rosetta (DE3) pLysS, purified (HisTrap, His6-SUMO cleaved)
B8: FzlA^NH2 (R140D E141K) (natural protein, Caulobacter crescentus)
chain: B1 chain with R140D, E141K
notes: FzlA, Caulobacter crescentus, with R140D E141K; also called no helices; source: E. coli Rosetta (DE3) pLysS, purified (HisTrap, His6-SUMO cleaved)
B9: FzlA^NB2 (E119K) (natural protein, Caulobacter crescentus)
chain: B1 chain with E119K
notes: FzlA, Caulobacter crescentus, with E119K; source: E. coli Rosetta (DE3) pLysS, purified (HisTrap, His6-SUMO cleaved)

These molecules were tested against T1, FtsZ (purified, C. crescentus) (assay: co-sedimentation; high speed co-pelleting: 4 µM FzlA variant ± 2 µM FtsZ, 50 mM MES pH 6.5, 50 mM KCl, 10 mM MgCl2, 2 mM GTP, 0.05% Triton X-100, 15 min room temperature, 280 000 x g 15 min 25°C; Coomassie gel quantified). Conditions: both partners purified.

Molecule | fold change of FzlA in pellet (with FtsZ vs. alone), high speed [fold]
B1 | 20.4
B2 | 9.85
B3 | 59
B4 | 3.51
B5 | 0.91
B6 | 5.85
B7 | 2.34
B8 | 7.21
B9 | 1.24

What follows are molecules tested against T1, FtsZ (purified, C. crescentus) (assay: cell-based or functional assay). Conditions: not given.

Molecule | % of FtsZ GTPase rate [%]
B2 | 55.7
B3 | 42.6
B4 | 89
B5 | 96.3
B6 | 77.3
B7 | 86.2
B8 | 85
B9 | 98.9

Each molecule was assayed against T1, FtsZ (purified, C. crescentus) (assay: co-sedimentation; low speed co-pelleting (higher order structures): 4 µM FzlA variant ± 2 µM FtsZ, 50 mM MES pH 6.5, 50 mM KCl, 2.5 mM MgCl2, 2 mM GTP, 16 000 x g 15 min room temperature). Conditions: both partners purified.

Molecule | fold change of FzlA in pellet (with FtsZ vs. alone), low speed [fold]
B1 | 11.1
B2 | 9.86
B3 | 12.3
B5 | 1.25
B6 | 6.1
B9 | 1.18

The molecules below were run against T1, FtsZ (purified, C. crescentus) (assay: not given). Conditions: not given.

Molecule | % of FtsZ GTPase rate [%]
FzlA^WB1 (D109R E122K) (from UniProt A0A0H3CDY2 1-228) (natural protein) | 85.5
